Experimental data as given in PMC10967246, “A novel tetratricopeptide-repeat protein, TTP1, forms complexes with glutamyl-tRNA reductase and protochlorophyllide oxidoreductase during tetrapyrrole biosynthesis” (Journal of Experimental Botany, 2023).

Columns and labels:
Test in all cases: MST; 200 nM RED-NHS-labelled 6×His–TTP1 constant, decreasing amounts of the binding partner; phosphate-buffered saline; Monolith NT.115, standard capillaries, excitation 100%, MST power 40%; Kd fit for 1:1 stoichiometry
Conditions in all cases: both partners purified
[1] = molecular target: T1, recombinant His-tagged full-length GluTR1 (Arabidopsis, UniProt P42804 62-543)
T1 construct: glutamyl-tRNA reductase 1 (HEMA1), Arabidopsis; called full-length GluTR1 in the legend; source: recombinant, His-tagged

[2] = molecular target: T2, recombinant His-tagged GluTR-binding protein (GBP) (Arabidopsis, UniProt Q9LU39 43-317)
T2 construct: source: recombinant, His-tagged
T2 sequence (looked up): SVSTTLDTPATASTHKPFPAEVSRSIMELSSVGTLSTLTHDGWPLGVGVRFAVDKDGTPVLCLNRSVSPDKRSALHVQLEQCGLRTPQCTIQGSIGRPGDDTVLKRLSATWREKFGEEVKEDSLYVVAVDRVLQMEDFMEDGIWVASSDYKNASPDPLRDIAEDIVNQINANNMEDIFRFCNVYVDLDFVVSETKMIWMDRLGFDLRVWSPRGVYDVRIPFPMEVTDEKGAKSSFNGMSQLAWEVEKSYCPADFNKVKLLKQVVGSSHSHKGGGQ

[3] = molecular target: T3, recombinant His-tagged PORB (Arabidopsis, UniProt P21218 67-401)
T3 construct: protochlorophyllide oxidoreductase B, Arabidopsis; source: recombinant, His-tagged
T3 sequence (looked up): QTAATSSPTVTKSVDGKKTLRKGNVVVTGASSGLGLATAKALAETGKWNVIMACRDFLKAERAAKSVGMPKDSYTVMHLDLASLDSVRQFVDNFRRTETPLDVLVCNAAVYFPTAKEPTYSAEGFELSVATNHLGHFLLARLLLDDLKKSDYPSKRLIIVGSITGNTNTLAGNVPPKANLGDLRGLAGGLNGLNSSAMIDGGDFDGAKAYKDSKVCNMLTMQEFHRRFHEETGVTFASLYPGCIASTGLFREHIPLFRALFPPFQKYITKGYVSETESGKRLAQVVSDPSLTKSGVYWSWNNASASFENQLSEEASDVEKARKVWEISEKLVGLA

[4] = molecular target: T4, recombinant His-tagged PORC (Arabidopsis, UniProt O48741 68-401)
T4 construct: protochlorophyllide oxidoreductase C, Arabidopsis; source: recombinant, His-tagged
T4 sequence (looked up): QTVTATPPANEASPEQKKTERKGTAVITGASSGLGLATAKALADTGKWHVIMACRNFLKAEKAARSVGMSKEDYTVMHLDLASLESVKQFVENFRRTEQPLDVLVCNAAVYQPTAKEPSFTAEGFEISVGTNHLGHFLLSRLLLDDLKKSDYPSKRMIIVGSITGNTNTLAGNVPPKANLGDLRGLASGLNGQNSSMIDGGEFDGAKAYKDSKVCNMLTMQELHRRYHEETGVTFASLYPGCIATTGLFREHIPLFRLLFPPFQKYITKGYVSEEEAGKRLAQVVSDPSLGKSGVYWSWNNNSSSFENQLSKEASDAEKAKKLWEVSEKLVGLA

- Kd [1]: < 1 µM
- Kd [2]: < 1 µM
- Kd [3]: < 1 µM
- Kd [4]: < 1 µM
B1: recombinant 6×His-tagged TTP1, RED-NHS labelled (natural protein)
chain: MLMTLAATTSVSFNSKLLLFRIRCSDSNPKRGFGSKKEEKDPALQQRKSSSKQSVSVPRKAPGLNTQFEGKSGRSFDIDFDERLENIRRSALEQKKTEVVKEFGPIDYDAPVKSDQKTIGLGTKVGVGIAVVVFGLVFALGDFLPTGSDSPTKNTTVVKNQISEEEKATLQQRLKEFETTLNGTPQDQAALEGAAVTLTELGDYSRAAAFLEKLAKERPTDPDVFRLLGEVNYELNNYEGSIAAYKISEKVSKGIDLEVTRGLMNAYLAAKKPDEAVKFLLDTRERLNTKKTSTTDSVTDETNLDPIQVELLLGKAYSDWGHISDAIAVYDQLISAHPEDFRGYLAKGIILRENGSRGDAERMFIQARFFAPNKAKALVDRYSKL
modifications: labelled with the RED-NHS Protein Labeling Kit, degree of labeling approximately 1.0
